# Measurements taken from the supplement of paper PMC9170038.
# System: MS2 coat protein
# Assay: apparent KD of MS2 coat protein; higher = weaker reporter binding
# Conditions: Eterna round: R107
# Outline: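 Apparent KD per design is the median of normalised cluster binding-curve fits. Designed RNA switches transcribed on-chip from Illumina sequencing clusters were titrated with SNAP-549-labelled MS2 coat protein in twofold steps from 0.7 or 1.5 nM to 3 µM, with 0.8–1.5 h down to 10–20 min per step. Buffer: 100 mM Tris-HCl pH 7.5, 80 mM KCl, 4 mM MgCl2, without or with constant ligand.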
# [1] = input ligand: theophylline 20 uM
# [2] = input ligand: theophylline 2 mM
# [3] = input ligand: tryptophan 2.4 mM
Sequence,apparent KD of MS2 coat protein (input ligand: arginine 13.2 mM) [µM],apparent KD of MS2 coat protein (input ligand: none) [µM],apparent KD of MS2 coat protein [1] [µM],apparent KD of MS2 coat protein [2] [µM],apparent KD of MS2 coat protein [3] [µM]
GUCUGUGACUGAAGGAGCGACAUGAGGAUCACCCAUGUCUCCCGUUAUGGGAGUUCCUUAGGUCAGGUAGGUCGCAGUCACAGAC [#1 Exclusion - Arginine B Attempt #28 (Inspired by Omei)],0.0714,0.112,0.137,0.152,0.103
AAUAAUAAGGCGGCCGCCACUAAACAUGAGGAUCACCCAUGUCUCGAGCGCUUGCAUUUGGGAAGUAGGACCGGGCCAAUAAUAA [Exclusion - Tryptophan B (Freestyle 4)],0.0145,0.0214,0.0288,0.0226,0.0194
ACAUGAGGAUCACCCAUGUUAAACAGGGUGCGAGGACCGGUACGGCCGCCACUCGGACAUUAUUACGAGUGAAUGGCAACGAUGU [#12 Exclusion Tryptophan A],0.0265,–,0.0241,0.0244,–
GGAUAGGACACGGCCGCCACUACCUAGGAUACUAGCAACAUUUGGGUACGUGAGGAUCACCCACGUAGGACCGGGUGUCCUAUCG,0.0152,–,0.0191,0.0145,0.0204
GACCUUAUCUGAAGGAGCGAGGUAAAUAGGGAUAGGAACAUGAGGAUCACCCAUGUGCGGCCUCAGGUAGGUCGCAGAUGAGAUU [Exclusion Arginine B GF28],0.042,0.0937,0.103,0.179,0.113
AAAGAUCGGAAACGAUCGGCGGCUUGGGCGCGAGGACCGGUACGGCCGCCACUCGGGCAACAUGAGGAUCACCCAUGUUCCUCAU [ETA NP+V+V2 #17],0.0755,0.146,0.245,0.18,0.189
GCUUGGGUGGCACAGCCCUGGCAGUGCGAUACCAGCACGGUAACGUGCCCUUGGCAGCGCACAUGAGGAUCACCCAUGUGGUGCG [#1 Exclusion - Theophylline A Attempt #25 (HarryS)],0.0287,–,0.197,–,0.0626
ACAUGAGACAUGGAUACCAGCGACAUGAGGAUCACCCAUGUAUGAGGAUCACCCAUGUUAUGCCCUUGGCAGCCACAAACAUGAG [.PLMULLINP],0.0198,0.0139,0.0308,0.147,0.0152
CGUCGAGACUGAAGGAGCGAGAUAACAACAUUGGGUCUCAACACAUGAGGAUCACCCAUGUCUCAGGUAGGUCGCGGUGUCACCG [Exclusion Arginine B GF21],0.142,0.195,0.211,0.15,0.132
AAAACAAACUCGGCCGCCACUCCCUCCCACCCAAGGACAUGAGGAUCACCCAUGUGGCAAAGCCCGAGGACCGGGAGAAACAAAA [Same State - Trytophan B],0.0181,0.0222,0.0283,0.0264,0.0203
UCGCCCGGGUCGGCCGCCACUGAGGUGAUGUGACAUGAGGAUCACCCAUGUUGUCAUGUGGCACAUAGGACCGGGACCCGGGCGA [Exclusion - Tryptophan B Attempt #3 (HarryS)],0.0164,0.0263,0.041,0.0168,0.0225
ACAUGAGCAUCAGCCUUGUAGGAACUAGAUACCAGCCCAACAUGAGGCCCUUGGCAGCUGACAACAUGAGGAUCACCCAUGUCAC [Exclusion - Theophylline A #1],0.0201,–,0.0363,–,0.0384
UUCAGCUAGUCGGCCGCCACUACAUGAGGAUCACCCAUGUAUCCUAAACACUGCUUCGGCAGUGGUAGGACCGGGACUAGCUGAG,0.0181,0.0139,0.0216,0.0183,0.136
GCAUCCUAGUCGGCCGCCACUGCAUGUAGUUUUGCUACAUGGAAACAUGAGGAUCACCCAUGUAGCAGGACCGGGACUAGGAUGC [(Trp1)-(TM)''-(TM)'-(Ms2)-(Trp2)_Design7],0.0307,–,0.0362,0.036,–
GUUGUAUACUCGGCCGCCACUGAGAGAGUCAUGUGAACAUGAGGAUCACCCAUGUAAUAUAUAUACAGGACCGGGAGUGUGGUAA [4.H],0.0145,0.0168,0.0165,0.0144,0.0158
AACCGAGGCUAUCCUCUACGACUAUGUGAUACCAGAAUAAUUUUAUUCCCUUGGCAGCAUGACAUGAGGAUCACCCAUGUCUCUU [SSTheo A #9],0.024,–,0.0388,–,0.034
ACAUGAGGAUCACCCAUGUACAUGACGGAAGGAGCGUGCAAAAGCACAGGUAGGUCGCCGAUCUACAUAUUGGGUAUUAUAUUUU [#29 Exclusion - Arginine A],0.0154,0.0194,0.0357,0.0283,0.0242
AAUAACAUGAGGAUCACCCAUGUAAAAGAUACCAGAUGCAUGAUGAUCCCUUGGCAGCUUAAACGCGAUUGAUUACAAUCGCGAA [Mat - Same State Theophlline A - Mod of Eli - D10],0.0409,–,0.0719,–,0.0212
CGGUACAUGAGGAUCACCCAUGUGUCGGAUACCAGAGAGCCGUCUCUCCCUUGGCAGCUGGUUUUACAUGAGGAUCACCCAUGUG [Exclusion Theophylline A GF20],0.0125,–,0.0152,–,0.0126
AAUAAACAUGAGGAUCACCCAUGUAUGGAAGGAGCGGUGAAUAAACCAGGUAGGUCGCCAGUGUGAGGGUCAUCUAUGUAAUCAA [Exclusion - Arginine A (Freestyle 3)],0.0291,0.0421,0.0583,0.0493,0.0495
AGAGUCAGACAAAAGUCUGGCUCAGCCGAAGGAGCGUCCGAAAGGACAGGUAGGUCGCGGUUACCUGAGGAUCACCCGGGUUCCU [ArgAS 25 #OpenEnded #AlternativeMS2],0.0567,0.219,0.377,0.59,0.184
GCAUCCUAGUCGGCCGCCACUGACAUGAGGAUCACCCAUGUACAUGAGGAUCACCCAUGUUGUAGCAGGACCGGGACUAGGAUGC [SS Tryp B #17],0.176,0.259,0.277,0.295,0.0756
ACAUUUAACUGAAGGAGCGUGAUAUACAUGAGGAUCACCCAUGUGUCUUUCAUGAAUAAUUCACAGGUAGGUCGCAGACUAAUGA [JR_ExcArginiB_Sub008],0.0404,0.0361,0.0503,0.0454,0.0376
UCGCAUUGCUCAGAUACCAGACAUGAGGAUCACCCAUGUACCAAGGUACCCGAAAGGAAUGUCCCUUGGCAGCUGAGCAAUGCGU [MAT - Exclusion Theophlline B - Mod of Eli - D19],0.0105,–,0.014,–,0.0104
GAUGAUAUUGCAGAUACCAGACACAUGAGGAUCACCCAUGUCGUUGGGUAGCUGGGUCGUGUCCCUUGGCAGCUGCGAUAUCAUC [#05 Exclusion-TheophyllineB],0.0198,–,0.0482,–,0.0245
UCCUGCAGAGCGGCCGCCACUGUAUUGCGUGAGGAUGACCCAACAUGAGGAUCACCCAUGUUGUUUAGGACCGGGCUUGCCACGA [opmullin%],0.0137,–,0.0212,0.015,–
GGAAUAAUGGCGGCCGCCACUAACUCAUAUACAUCAUGUACAUGAGGAUCACCCAUGUAGGUGUAUAGGACCGGGCCAUAAUUCC [39MS split4],0.0201,–,0.0273,0.0251,–
GGAGUAGGAAACUAUUCCAAUCCUCGUGAACGAGGACCGGUACGGCCGCCACUCGAUAAAUAAAUACAUGAGGAUCACCCAUGUA [Ex Tryptophan A 22],0.02,–,0.0289,0.0341,–
AGACAUGAGGAUCACCCAUGUAGCAUGGAUACCAGAUGUAGAUUAGUCCCUUGGCAGCUGUGGUGAAGUGAUGCAUUGCUCCUAG [Exclusion - Theophylline A (Freestyle 2)],0.0299,–,0.0743,–,0.0501
